Assay results taken from the supplement of paper PMC10724198.
± gives the standard deviation of the averaged measurements.

Experiments:
Saccharomyces cerevisiae [1] = experiment: protein stability index of tFT-peptide fusion (C-terminal peptide) (PSI (0-1 scale)); higher = more stable (slower turnover)
Protocol: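 MPS profiling in S. cerevisiae of the tFT-X12 degron library: putative degron peptides plus stable controls, 12 aa, fused to the C-terminus of a sfGFP-mCherry timer. Cells are FACS-sorted into 8 mCherry/sfGFP bins and deep-sequenced. PSI runs from 0 (unstable) to 1 (stable). Backgrounds are wild type, das1Δ and doa10Δ at 30 °C, and wild type, das1Δ, cdc34-1 and cdc53-1 at 37 °C; 2-3 technical replicates each.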

Saccharomyces cerevisiae [2] = experiment: as above; settings: genetic background: wild type; temperature: 30 C
[3] = genetic background: cdc34-1, temperature: 37 C
[4] = genetic background: cdc53-1, temperature: 37 C
[5] = genetic background: das1 deletion, temperature: 30 C
[6] = genetic background: das1 deletion, temperature: 37 C
[7] = genetic background: doa10 deletion, temperature: 30 C
[8] = genetic background: wild type, temperature: 30 C
[9] = genetic background: wild type, temperature: 37 C
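Note: PSI is a weighted mean of sequencing reads over stability bins, variants kept only with over 10 reads, mCherry proximal and sfGFP distal, peptide attached via GGGS linker.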

Sequence	protein stability index (Saccharomyces cerevisiae [1]; [3])	protein stability index (Saccharomyces cerevisiae [1]; [4])	protein stability index (Saccharomyces cerevisiae [1]; [5])	protein stability index (Saccharomyces cerevisiae [1]; [6])	protein stability index (Saccharomyces cerevisiae [1]; [7])	protein stability index (Saccharomyces cerevisiae [1]; [8])	protein stability index (Saccharomyces cerevisiae [1]; [9])	protein stability index (Saccharomyces cerevisiae [2])
GGSGGVSWRRVV	0.68 ± 0.034	0.735 ± 0.0088	0.654 ± 0.011	0.725 ± 0.01	0.223 ± 0.019	0.264 ± 0.018	0.546 ± 0.051	0.395 ± 0.022
GGSIKRFVILVL	0.416 ± 0.027	0.489 ± 0.0076	0.3 ± 0.044	0.525 ± 0.017	0.259 ± 0.006	0.304 ± 0.024	0.482 ± 0.027	0.406 ± 0.022
GGSKIGFTVGGG	0.686 ± 0.024	0.741 ± 0.017	0.645 ± 0.013	0.738 ± 0.013	0.642 ± 0.018	0.664 ± 0.02	0.725 ± 0.0018	0.721 ± 0.018
GGTGGAGSRGQI	0.641 ± 0.069	0.741 ± 0.01	0.6181 ± 0.0046	0.724 ± 0.02	0.644 ± 0.0041	0.657 ± 0.011	0.7316 ± 0.007	0.499 ± 0.099
GGWFFWVGAWVV	0.173 ± 0.005	0.346 ± 0.028	0.202 ± 0.026	0.3957 ± 0.0013	0.102 ± 0.018	0.121 ± 0.025	0.214 ± 0.0027	0.193 ± 0.0025
GGWRVLHAWVAV	0.651 ± 0.045	0.682 ± 0.012	0.546 ± 0.019	0.6866 ± 0.00041	0.278 ± 0.0058	0.328 ± 0.023	0.553 ± 0.023	0.463 ± 0.015
GGYIINRWRTKN	0.566 ± 0.035	0.709 ± 0.022	0.622 ± 0.016	0.724 ± 0.052	0.113 ± 0.026	0.142 ± 0.021	0.273 ± 0.011	0.27 ± 0.052
GILPIYNIISRL	0.9679 ± 0.0088	0.948 ± 0.019	0.842 ± 0.054	0.891 ± 0.013	0.568 ± 0.016	0.547 ± 0.1	0.84 ± 0.031	0.553 ± 0.28
GITSFFSWSFLS	0.6014 ± 0.0038	0.7537 ± 0.0057	0.682 ± 0.064	0.782 ± 0.055	0.169 ± 0.015	0.172 ± 0.0065	0.366 ± 0.0087	0.237 ± 0.048
GKWFSWNAIWIR	0.0949 ± 0.11	0.0354 ± 0.0075	0.101 ± 0.025	0.1 ± 0.02	0.6114 ± 0.0025	0.0762 ± 0.029	0.101 ± 0.046	0.145 ± 0.049
GLCGVCLVRCVG	0.3008 ± 0.00051	0.412 ± 0.024	0.275 ± 0.031	0.478 ± 0.0052	0.211 ± 0.0051	0.249 ± 0.036	0.393 ± 0.0046	0.338 ± 0.019
GLGMVIIGLLIG	0.176 ± 0.011	0.342 ± 0.09	0.224 ± 0.032	0.432 ± 0.042	0.191 ± 0.0035	0.227 ± 0.01	0.387 ± 0.0056	0.354 ± 0.022
GLLGRCPVVVFG	0.385 ± 0.041	0.397 ± 0.013	0.273 ± 0.04	0.49774 ± 0.00049	0.216 ± 0.013	0.285 ± 0.026	0.463 ± 0.0047	0.378 ± 0.061
GLRFFVSSLLCR	0.502 ± 0.039	0.54807 ± 0.0003	0.389 ± 0.036	0.5651 ± 0.0036	0.377 ± 0.0095	0.388 ± 0.02	0.555 ± 0.021	0.508 ± 0.058
GLVCPWLIVRFV	0.303 ± 0.051	0.3 ± 0.065	0.372 ± 0.036	0.5 ± 0.0067	0.161 ± 0.022	0.136 ± 0.0078	0.216 ± 0.03	0.2 ± 0.015
GLVWSKCFFIVG	0.637 ± 0.041	0.705 ± 0.016	0.547 ± 0.014	0.7105 ± 0.0018	0.2675 ± 0.0018	0.295 ± 0.022	0.528 ± 0.018	0.407 ± 0.033
GLWLRVCIVAWV	0.0407 ± 0.01	0.122 ± 0.017	0.0686 ± 0.031	0.19 ± 0.0034	0.0424 ± 0.011	0.0551 ± 0.013	0.144 ± 0.0033	0.14 ± 0.0097
GLYLVFMGFVPC	0.471 ± 0.019	0.52714 ± 4.2e-05	0.33 ± 0.053	0.575 ± 0.032	0.3169 ± 0.0022	0.325 ± 0.034	0.505 ± 0.0082	0.47 ± 0.029
GNIHHTRFLALL	0.838 ± 0.04	0.859 ± 0.012	0.7472 ± 0.0026	0.835 ± 0.012	0.485 ± 0.017	0.498 ± 0.013	0.693 ± 0.024	0.458 ± 0.0074
GNSAGSVGGGRF	0.695 ± 0.022	0.738 ± 0.02	0.627 ± 0.012	0.7387 ± 0.0012	0.638 ± 0.024	0.652 ± 0.014	0.7254 ± 0.0028	0.705 ± 0.038

Sequence	protein stability index (Saccharomyces cerevisiae [1]; [3])	protein stability index (Saccharomyces cerevisiae [1]; [4])	protein stability index (Saccharomyces cerevisiae [1]; [5])	protein stability index (Saccharomyces cerevisiae [1]; [6])	protein stability index (Saccharomyces cerevisiae [1]; [7])	protein stability index (Saccharomyces cerevisiae [1]; [8])	protein stability index (Saccharomyces cerevisiae [1]; [9])	protein stability index (Saccharomyces cerevisiae [2])
GPILVWVMADWG	0.43 ± 0.036	0.506 ± 0.028	0.328 ± 0.036	0.5493 ± 0.00096	0.293 ± 0.0078	0.337 ± 0.018	0.518 ± 0.012	0.447 ± 0.041
GPVRTEFWLYVW	0.651 ± 0.014	0.704 ± 0.022	0.55 ± 0.041	0.655 ± 0.011	0.57 ± 0.031	0.583 ± 0.049	0.626 ± 0.0066	0.553 ± 0.18
GQRIKWGPIYLT	0.352 ± 0.079	0.336 ± 0.0081	0.366 ± 0.028	0.444 ± 0.013	0.397 ± 0.034	0.22 ± 0.027	0.365 ± 0.052	0.249 ± 0.019
GREGETGSKAGR	0.675 ± 0.008	0.708 ± 0.013	0.64 ± 0.024	0.7282 ± 0.003	0.64 ± 0.027	0.669 ± 0.021	0.717 ± 0.015	0.552 ± 0.17
GRGGLRVVVWLV	0.518 ± 0.069	0.642 ± 0.016	0.496 ± 0.024	0.6652 ± 0.0041	0.11 ± 0.017	0.123 ± 0.022	0.143 ± 0.0029	0.189 ± 0.011
GRGLGHWWTVRT	0.672 ± 0.03	0.756 ± 0.024	0.698 ± 0.017	0.741 ± 0.015	0.689 ± 0.013	0.704 ± 0.0092	0.716 ± 0.012	0.751 ± 0.033
GRVAIFTLLWRI	0.199 ± 0.066	0.105 ± 0.041	0.256 ± 0.063	0.362 ± 0.01	0.469 ± 0.052	0.252 ± 0.032	0.29 ± 0.012	0.314 ± 0.12
GSLHWVMVFAVP	0.604 ± 0.037	0.6404 ± 0.0044	0.491 ± 0.025	0.6582 ± 0.0047	0.493 ± 0.033	0.487 ± 0.016	0.607 ± 0.03	0.489 ± 0.042
GSVCVVCWELVV	0.4883 ± 0.0024	0.583 ± 0.0091	0.344 ± 0.029	0.5561 ± 0.0013	0.26 ± 0.0046	0.293 ± 0.017	0.4792 ± 0.0027	0.378 ± 0.04
GSVGFICCVVVV	0.29 ± 0.022	0.4314 ± 0.0042	0.332 ± 0.03	0.515 ± 0.0078	0.268 ± 0.017	0.298 ± 0.031	0.4546 ± 0.0022	0.412 ± 0.0011
GTETWVFVLLKF	0.102 ± 0.021	0.0712 ± 0.011	0.169 ± 0.036	0.224 ± 0.019	0.302 ± 0.026	0.165 ± 0.013	0.179 ± 0.011	0.218 ± 0.031
GVFFHFFFLFCF	0.332 ± 0.025	0.352 ± 0.01	0.324 ± 0.018	0.447 ± 0.0093	0.3913 ± 0.0038	0.297 ± 0.028	0.413 ± 0.0047	0.43 ± 0.013
GVSRRWFSLRCI	0.627 ± 0.039	0.717 ± 0.015	0.612 ± 0.029	0.75 ± 0.013	0.125 ± 0.009	0.15 ± 0.011	0.2424 ± 0.0022	0.214 ± 0.0074
GVVCCVVVGRMG	0.619 ± 0.024	0.659 ± 0.024	0.474 ± 0.024	0.665 ± 0.018	0.445 ± 0.032	0.451 ± 0.013	0.63558 ± 6.8e-05	0.503 ± 0.053
GVVRKLCHWVVA	0.476 ± 0.0049	0.516 ± 0.031	0.362 ± 0.027	0.525 ± 0.0015	0.286 ± 0.0046	0.322 ± 0.016	0.469 ± 0.013	0.426 ± 0.04
GWVQFVKAAVLF	0.655 ± 0.063	0.7587 ± 0.0019	0.59 ± 0.031	0.73964 ± 3.5e-06	0.197 ± 0.0058	0.211 ± 0.043	0.4443 ± 0.0032	0.36 ± 0.053
GYACSIFYLRCV	0.535 ± 0.037	0.5771 ± 6.4e-05	0.496 ± 0.03	0.6266 ± 0.00063	0.218 ± 0.0038	0.23 ± 0.021	0.444 ± 0.016	0.377 ± 0.014
GYRFSILSILRV	0.581 ± 0.031	0.611 ± 0.014	0.513 ± 0.024	0.627 ± 0.012	0.488 ± 0.017	0.47 ± 0.023	0.612 ± 0.016	0.482 ± 0.025
HANPGTFGPCTR	0.654 ± 0.019	0.7204 ± 0.006	0.645 ± 0.012	0.72 ± 0.0081	0.658 ± 0.019	0.6499 ± 0.0061	0.683 ± 0.017	0.696 ± 0.048
